Test results published in paper PMC3564914, “Transcriptome analysis of bitter acid biosynthesis and precursor pathways in hop (Humulus lupulus)” (BMC Plant Biology, 2013).

B1: HlBCAT2 (Humulus lupulus) (protein)
chain: NATLSDTYSETVELADIDWDNLGFGFLPTDYMYNMKCAQGESFSNGELQRFGNIELSPSAGVLNYGQGLFEGLKAYRKEDGNILLFRPEENALRMRLGAERMCMPSPTVDQFVDAVKATVLANKRWIPPVGKGSLYIRPLLMGSGAVLGLAPAPEYTFLIYVSPVGNYFKEGVAPIHLIVEDNLHRATPGGTGGVKTIGNYAAVLKAQSAAKEQGYSDVLYLDCVHKKYLEEVSSCNIFVVKGNLIFTPAIKGTILPGITRKSIIDVARTLGFQVEERLVHVDELLDADEVFCTGTAVVVSPVGSITYHGERVPYNEGGVGAVSQQLYSALTRLQMGFIKDNMNWTVELS
notes: N-terminal vector His tag (pHIS8/GW), E. coli BL21(DE3) Rosetta2 pLysS, Talon purified
B2: HlBCAT1 (Humulus lupulus) (protein)
chain: SSTSLAKSSLKQSCELSCKSNTEPSNMDWDKLGFKLMPTDYVYSMKCSNEGNFEQGRLELHGNIELSPAAAVLNYGQGIFEGTKAYRKEDGSLLLFRPDQNGVRMRIGAERMCMPSPSVDQFVDAVKQTAIANRRWVPPSGKGSLYIRPLLMGTGAVLGVAPAPQYTFLAYASPVGNYFKEGLAPLRLYVEDEFDRASPGGTGFVKTIGNYSRCLAALSRAKNKGFSDVLFLDSVHKKYVEELSSCNIFIVQGNQISTPAANGTILSGVTRSSIIEIARDHGFKVEERKIAVDELMEAEEVFCTGTAVGVASVGSITYHNKRVEFKTGSQSVSQKFYSTLIGIQTGVVEDKKGWIVEID
notes: as for B1

What was measured:
Test in all cases: purified protein
Format in all cases: biochemical, Humulus lupulus
[1] = substrate: CC(C)C(=O)C(=O)O; details: anabolic direction, 2 mM glutamate, 50 μM PLP, 100 mM ammonium chloride, Tris HCl pH 8.5, 22°C
[2] = substrate: CC(C)CC(=O)C(=O)O; details: anabolic direction, 2 mM glutamate, 50 μM PLP, 100 mM ammonium chloride, Tris HCl pH 8.5, 22°C
[3] = substrate: CC(C)C[C@H](N)C(=O)O; details: catabolic direction, 2 mM 2-oxoglutarate, 50 μM PLP, Tris HCl pH 8.5, 22°C
[4] = substrate: CC(C)[C@H](N)C(=O)O; details: catabolic direction, 2 mM 2-oxoglutarate, 50 μM PLP, Tris HCl pH 8.5, 22°C
[5] = substrate: CC[C@H](C)C(=O)C(=O)O; details: anabolic direction, 2 mM glutamate, 50 μM PLP, 100 mM ammonium chloride, Tris HCl pH 8.5, 22°C
[6] = substrate: CC[C@H](C)[C@H](N)C(=O)O; details: catabolic direction, 2 mM 2-oxoglutarate, 50 μM PLP, Tris HCl pH 8.5, 22°C
[7] = substrate: N[C@@H](CCC(=O)O)C(=O)O; details: anabolic direction, 0.5 mM ketoisovalerate, 50 μM PLP, 100 mM ammonium chloride, Tris HCl pH 8.5, 22°C
[8] = substrate: O=C(O)CCC(=O)C(=O)O; details: catabolic direction, 2 mM leucine, 50 μM PLP, Tris HCl pH 8.5, 22°C

Row | Protein | Km [1] [µM] | Vmax [1] [µmol/min/mg] | Km [2] [µM] | Vmax [2] [µmol/min/mg] | Km [3] [µM] | Vmax [3] [µmol/min/mg] | Km [4] [µM] | Vmax [4] [µmol/min/mg] | Km [5] [µM] | Vmax [5] [µmol/min/mg] | Km [6] [µM] | Vmax [6] [µmol/min/mg] | Km [7] [µM] | Vmax [7] [µmol/min/mg] | Km [8] [µM] | Vmax [8] [µmol/min/mg]
1 | B1 | 200 ± 11.72 | 96.4 | 120 ± 11.43 | 119 | 280 ± 69.56 | 43.4 | 130 ± 27.74 | 23.3 | 160 ± 11.63 | 84.7 | 250 ± 41.07 | 88.1 | 690 ± 88.51 | 136 | 210 ± 58.86 | 36.9
2 | B2 | 99 ± 6.53 | 4.23 | 35 ± 3.27 | 4.5 | 40 ± 9.20 | 4.84 | 340 ± 90.94 | 12.6 | 99 ± 10.75 | 2.95 | 230 ± 26.94 | 19.4 | 720 ± 55.59 | 5.59 | 30 ± 5.39 | 4.5
